Assay results taken from US20140303084.
Numbering of substitutions follows the chain as printed.

How the values were obtained:
[1] = tested on: T1, GYRVPVGGLV RRAHG KLTCLASYCWLFWTGIA
T1 sequence: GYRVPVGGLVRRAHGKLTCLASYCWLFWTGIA

KLTCLASQCWLF = tested on: T2, KLTCLASQCWLF
T2 sequence: KLTCLASQCWLF

compound 1 = tested on: T3, compound 1
T3 sequence: KLTCLASYCWLF

[2] = tested on: T4, RRAPGKLQCLASYCWLFWTG-Nle-A
T4 sequence: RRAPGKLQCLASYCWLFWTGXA

[3] = tested on: T5, RRAPGKLTCLAS-MeTyr-CWLFWTGIA
T5 sequence: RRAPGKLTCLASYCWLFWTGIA

[4] = tested on: T6, SLISMTNPSG RRVPG KLTCLASYCWLFWTGIA
T6 sequence: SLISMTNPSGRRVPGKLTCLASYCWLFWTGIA

[5] = tested on: T7, QWQIAGQVLKRRAPA KLTCLASYCWLFWTGIA
T7 sequence: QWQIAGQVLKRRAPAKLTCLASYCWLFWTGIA

KKTCVASFCQMI = tested on: T8, KKTCVASFCQMI
T8 sequence: KKTCVASFCQMI

[6] = tested on: T9, PRIRTVGPGSRSASGKLTCVASYCWLFWTGIA
T9 sequence: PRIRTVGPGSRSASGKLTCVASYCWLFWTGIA

compound B = tested on: T10, compound B
T10 sequence: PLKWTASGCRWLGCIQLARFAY

[7] = tested on: T11, PARGKERELM RRAPG KLTCLASYCWLFWTGIA
T11 sequence: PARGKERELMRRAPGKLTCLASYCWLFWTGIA

[8] = tested on: T12, RRAPGKLTCLASYCWLF WTGFA FRVGLASSLY
T12 sequence: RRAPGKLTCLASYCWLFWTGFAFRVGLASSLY

[9] = tested on: T13, PEG4-RRAPGKLTCLASYCWLFWTGIA
T13 sequence: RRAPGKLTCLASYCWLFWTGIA

[10] = tested on: T14, Palmitoyl-(PEG)27(PEG)27-KLTCLASYCWLF
T14 sequence: KLTCLASYCWLF

[11] = tested on: T15, SRIrTVSPGSrSASGKSTCLASYCWLFWTGIA
T15 sequence: T9 sequence with P1S, G7S, L17S, V20L

RRAPGKLTcLASYCWLFWTGIA [12] = tested on: T16, RRAPGKLTcLASYCWLFWTGIA
T16 sequence: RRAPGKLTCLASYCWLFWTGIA

[13] = tested on: T17, rRAPGKLTCLASYCWLFWTGIA-PEG16-Lys(PEG2-Biotin)-PEG16-CNPRGD-Tyr(OEt)-RC
T17 sequence: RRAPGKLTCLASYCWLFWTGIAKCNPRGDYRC

RRAPGKLTCLASYCWLFWTGiA [14] = tested on: T18, RRAPGKLTCLASYCWLFWTGiA
T18 sequence: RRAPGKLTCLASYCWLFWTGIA

RAAPGKLQCLASYCWLFWTGIA = tested on: T19, RAAPGKLQCLASYCWLFWTGIA
T19 sequence: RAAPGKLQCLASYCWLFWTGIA

RRAPGKLTCLASYCWlFWTGIA [15] = tested on: T20, RRAPGKLTCLASYCWlFWTGIA
T20 sequence: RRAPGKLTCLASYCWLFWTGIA

[16] = tested on: T21, RRAPG-MeLys-LTCLASYCWLFWTGIA
T21 sequence: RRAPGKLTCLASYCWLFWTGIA

[17] = tested on: T22, CRRAPGKLQCLASYCWLFWTGIAGGSGGC
T22 sequence: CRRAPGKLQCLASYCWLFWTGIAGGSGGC

[18] = tested on: T23, RRAPGKLTCLASYCWLFWTGIA-COOH
T23 sequence: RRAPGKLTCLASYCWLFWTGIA

Orn-LTCLASYCWLF = tested on: T24, Orn-LTCLASYCWLF
T24 sequence: XLTCLASYCWLF

[19] = tested on: T25, TSGPFGFGGS SRAQG KLTCLASYCWLFWTGIA
T25 sequence: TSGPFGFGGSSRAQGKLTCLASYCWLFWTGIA

KLT-Lys-LASY-Glu-WLF = tested on: T26, KLT-Lys-LASY-Glu-WLF
T26 sequence: KLTKLASYEWLF

[20] = tested on: T27, rrapgkltclasycwlfwtgia (inverso)
T27 sequence: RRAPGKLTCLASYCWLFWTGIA

MAGMLKLTCFASYCGLFPLVSS = tested on: T28, MAGMLKLTCFASYCGLFPLVSS
T28 sequence: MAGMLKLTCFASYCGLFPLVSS

[21] = tested on: T29, PRIRTVGPGSRSASGKLTCLASYCWLFFTGIA
T29 sequence: T9 sequence with V20L, W28F

[22] = tested on: T30, (KLTCLASYCWLF)2═N-O-(CH2)3-O-N═
T30 sequence: KLTCLASYCWLF

KL-MeThr-CLASYCWLF = tested on: T31, KL-MeThr-CLASYCWLF
T31 sequence: KLTCLASYCWLF

[23] = tested on: T32, TLWPWGGQGG RNAPG KLTCLASYCWLFWTGIA
T32 sequence: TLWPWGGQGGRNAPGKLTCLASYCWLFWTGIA

[24] = tested on: T33, KLT-Orn-LASY-Glu-WLF-CONH2
T33 sequence: KLTXLASYEWLF

KLTCLASYCLLF = tested on: T34, KLTCLASYCLLF
T34 sequence: KLTCLASYCLLF

[25] = tested on: T35, SKQGRPISPDrRAAGKLTCLaSYCWLFWTGIA
T35 sequence: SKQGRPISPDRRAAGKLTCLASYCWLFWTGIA

[26] = tested on: T36, RRAPGKLTCLASYCWLF WTGIA RWPSHRSGPS
T36 sequence: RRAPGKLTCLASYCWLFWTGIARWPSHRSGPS

[27] = tested on: T37, CGGG-RRAPGKLT-Asp-LASY-Lys-WLFWTGIA
T37 sequence: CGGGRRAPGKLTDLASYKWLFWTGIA

[28] = tested on: T38, RRAPGKK(PEG2-Biotin)TCLASYCWLFWTGIA
T38 sequence: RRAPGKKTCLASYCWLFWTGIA

[29] = tested on: T39, RRAPGKLTCLASYCWLF ATGVT FPQIWAIPSP
T39 sequence: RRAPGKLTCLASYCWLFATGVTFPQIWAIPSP

[30] = tested on: T40, VGSGDERALP SRASG KLTCLASYCWLFWTGIA
T40 sequence: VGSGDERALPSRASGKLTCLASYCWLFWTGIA

compound 18 = tested on: T41, compound 18
T41 sequence: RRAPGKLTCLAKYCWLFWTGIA

compound 21 = tested on: T42, compound 21
T42 sequence: T9 sequence with V20L

[31] = tested on: T43, RRAPGKLTCLASYCWLFWTGI-MeAla
T43 sequence: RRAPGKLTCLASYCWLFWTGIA

compound 23 = tested on: T44, compound 23
T44 sequence: T9 sequence with V20L

KLTCLASYCWLF-COOH = tested on: T45, KLTCLASYCWLF-COOH
T45 sequence: KLTCLASYCWLF

[32] = tested on: T46, RRAPGKLT-Lys-LASY-Asp-WLFWTGIA-COOH
T46 sequence: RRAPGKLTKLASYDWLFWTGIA

RAPGKLQCLASYCWLFWTGIA = tested on: T47, RAPGKLQCLASYCWLFWTGIA
T47 sequence: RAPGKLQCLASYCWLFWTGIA

KLTCLATYCWLF = tested on: T48, KLTCLATYCWLF
T48 sequence: KLTCLATYCWLF

[33] = tested on: T49, AVDSLPLYGA RSAPS KLTCLASYCWLFWTGIA
T49 sequence: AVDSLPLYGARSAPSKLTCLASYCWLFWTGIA

KLTCLAsYCWLF = tested on: T50, KLTCLAsYCWLF
T50 sequence: KLTCLASYCWLF

RGRSAKLTCLASYCWLFFGVIL = tested on: T51, RGRSAKLTCLASYCWLFFGVIL
T51 sequence: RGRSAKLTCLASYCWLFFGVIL

human Factor IXa
(++): Vmax, FXa generation assay; (++) means 1-2 [3] | Vmax, FXa generation assay with hFIXa; (++) means 1-2 (compound B) | Vmax, FXa generation assay; (++) means 1-2 (RRAPGKLTcLASYCWLFWTGIA [12]) | Vmax, FXa generation assay; (++) means 1-2 (RRAPGKLTCLASYCWLFWTGiA [14]) | Vmax, FXa generation assay; (++) means 1-2 (RRAPGKLTCLASYCWlFWTGIA [15]) | Vmax, FXa generation assay; (++) means 1-2 [16] | Vmax, FXa generation assay; (++) means 1-2 (Orn-LTCLASYCWLF) | Vmax, FXa generation assay; (++) means 1-2 [19] | Vmax, FXa generation assay; (++) means 1-2 (KLT-Lys-LASY-Glu-WLF) | Vmax, FXa generation assay; (++) means 1-2 (MAGMLKLTCFASYCGLFPLVSS) | Vmax, FXa generation assay; (++) means 1-2 (KL-MeThr-CLASYCWLF) | Vmax, FXa generation assay; (++) means 1-2 [24] | Vmax, FXa generation assay; (++) means 1-2 [26] | Vmax, FXa generation assay; (++) means 1-2 [31] | Vmax, FXa generation assay; (++) means 1-2 (KLTCLASYCWLF-COOH) | Vmax, FXa generation assay; (++) means 1-2 (RAPGKLQCLASYCWLFWTGIA) | Vmax, FXa generation assay; (++) means 1-2 (KLTCLATYCWLF) | Vmax, FXa generation assay; (++) means 1-2 [33]
> 4: Vmax, FXa generation assay (KKTCVASFCQMI)
1360 M⁻¹ s⁻¹: (kcat/KM)app (M^-1s^-1) of FIXa on the chromogenic substrate, compound 1 at 10 µM (compound 1)
0.31: Δ KM (Km compound/Km buffer) (compound 1)
> 0.3: Vmax, FXa generation assay [10]
0.0144 min⁻¹: kcat (min^-1) of hFIXa for FX, compound at 3 µM (compound 1)
> 3: Vmax, FXa generation assay [7] | Vmax, FXa generation assay [8] | Vmax, FXa generation assay [9] | Vmax, FXa generation assay [11] | Vmax, FXa generation assay [13] | Vmax, FXa generation assay [21] | Vmax, FXa generation assay [22] | Vmax, FXa generation assay [29] | Vmax, FXa generation assay with hFIXa (compound 21) | Vmax, FXa generation assay with hFIXa (compound 23)
> 2: Vmax, FXa generation assay [1] | Vmax, FXa generation assay (KLTCLASQCWLF) | Vmax, FXa generation assay with hFIXa (compound 1) | Vmax, FXa generation assay [2] | Vmax, FXa generation assay [4] | Vmax, FXa generation assay [5] | Vmax, FXa generation assay [6] | Vmax, FXa generation assay (RAAPGKLQCLASYCWLFWTGIA) | Vmax, FXa generation assay [17] | Vmax, FXa generation assay [18] | Vmax, FXa generation assay [20] | Vmax, FXa generation assay [23] | Vmax, FXa generation assay (KLTCLASYCLLF) | Vmax, FXa generation assay [27] | Vmax, FXa generation assay [28] | Vmax, FXa generation assay [30] | Vmax, FXa generation assay with hFIXa (compound 18) | Vmax, FXa generation assay (KLTCLAsYCWLF) | Vmax, FXa generation assay (RGRSAKLTCLASYCWLFFGVIL)
2.6 mOD/min min: Vmax (mOD/min min), without phospholipids (compound 1)
> 0.5: Vmax, FXa generation assay [25] | Vmax, FXa generation assay [32]
3.98 mOD/min min: Vmax (mOD/min min), with phospholipids (compound 1)
